System: T1, Cc1cc(=O)oc2c(F)c(OP(=O)(O)O)c(F)cc12
T1 construct: codons 1-411; N-terminal GST; expressed in E. coli
Assay type: biochemical
Settings: pH 7.5; 30.0 °C
Text: Enzym e kcat (sec-1) KM (µM)

Question: How did the Km turn out when “hCdc14B^3A (Homo sapiens; K435A/L431A/R432A)” was run?
Answer: The Km was 1.68 µM.

Source: publication PMC11407943, “Cdc14 phosphatases use an intramolecular pseudosubstrate motif to stimulate and regulate catalysis” (The Journal of Biological Chemistry, 2024)
